Assay results taken from patent US20070212705.
Read-outs that look alike come from different tables or passages of the source.

Target: T1, Tetrapeptide Lys substrate L-Ala-γ-D-Glu-L-Lys-D-Ala
T1 chain: AEKA

B1: P. aeruginosa L-D carboxypeptidase A (PA LDC), N-terminal his-tagged, expressed from pET14b in E. coli BL21 (protein)
chain: MTSRPSSDQTWQPIDGRVALIAPASAIATDVLEATLRQLEVHGVDYHLGRHVEARYRYLAGTVEQRLEDLHNAFDMPDITAVWCLRGGYGCGQLLPGLDWGRLQAASPRPLIGFSDISVLLSAFHRHGLPAIHGPVATGLGLSPLSAPREQQERLASLASVSRLLAGIDHELPVQHLGGHKQRVEGALIGGNLTALACMAGTLGGLHAPAGSILVLEDVGEPYYRLERSLWQLLESIDARQLGAICLGSFTDCPRKEVAHSLERIFGEYAAAIEVPLYHHLPSGHGAQNRAWPYGKTAVLEGNRLRW
With B1 as the protein, how does the “cleavage of tetrapeptide substrate” value read?
Its value is “express a functional PA LDC protein that cleaved a tetrapeptide substrate in a dose dependent manner”.

And the cleavage of tetrapeptide substrate (RFU, Amplex Red detection of D-alanine released) (scale: fold lower specific activity compared to E. coli LDC)?
Its cleavage of tetrapeptide substrate (RFU, Amplex Red detection of D-alanine released) is 2.

B2: E. coli LDC protein (muramoyl-tetrapeptide carboxypeptidase P76008) (protein)
chain: MSLFHLIAPSGYCIKQHAALRGIQRLTDAGHQVNNVEVIARRCERFAGTETERLEDLNSLARLTTPNTIVLAVRGGYGASRLLADIDWQALVARQQHDPLLICGHSDFTAIQCGLLAHGNVITFSGPMLVANFGADELNAFTEHHFWLALRNETFTIEWQGEGPTCRAEGTLWGGNLAMLISLIGTPWMPKIENGILVLEDINEHPFRVERMLLQLYHAGILPRQKAIILGSFSGSTPNDYDAGYNLESVYAFLRSRLSIPLITGLDFGHEQRTVTLPLGAHAILNNTREGTQLTISGHPVLKM
How did the “cleavage of tetrapeptide substrate (RFU, Amplex Red detection of D-alanine released)” value turn out when B2 was run?
Its value is “illustrates the cleavage of a tetrapeptide substrate (L-Ala-γ-D-Glu-L-Lys-D-Ala) by E. coli LDC (squares)”.
